From article PMC9841335, “Structure of a bacterial ribonucleoprotein complex central to the control of cell envelope biogenesis” (The EMBO Journal, 2022)
Substitutions are numbered along the chain they refer to. Names and notes keep the numbering of the source.

B1: RapZ (full-length, purified recombinant) (natural protein, E. coli, UniProt P0A894 1-284, looked up)
chain: MVLMIVSGRSGSGKSVALRALEDMGFYCVDNLPVVLLPDLARTLADREISAAVSIDVRNMPESPEIFEQAMSNLPDAFSPQLLFLDADRNTLIRRYSDTRRLHPLSSKNLSLESAIDKESDLLEPLRSRADLIVDTSEMSVHELAEMLRTRLLGKRERELTMVFESFGFKHGIPIDADYVFDVRFLPNPHWDPKLRPMTGLDKPVAAFLDRHTEVHNFIYQTRSYLELWLPMLETNNRSYLTVAIGCTGGKHRSVYIAEQLADYFRSRGKNVQSRHRTLEKRKP
notes: The Strep-tag is cleavable by TEV protease; Construct and procedure follow Gonzalez et al, 2017; In all complexes with RNase E-NTD the sRNA GlmZ was present; also called RapZ tetramer; full‐length RapZ; source: E. coli Rosetta, plasmid pMCSG7, purified (Strep Trap HP, Superdex 200 SEC)
B2: T25-RapZ 4 substitutions (T161A, Y240A, N271A, Q273A; BACTH fusion) (natural protein, E. coli, UniProt P0A894 1-284, looked up)
chain: B1 chain with T161A, Y240A, N271A, Q273A
notes: RapZ, E. coli, with alanine substitutions of Q273, N271, Y240 and T161; source: bacterial two-hybrid fusion (pKT25 plasmid) in E. coli BTH101
B3: RNase E-NTD (residues 1-598, Δ568–582, D346C) (domain or fragment)
chain: not shown
notes: also called mutant RNase E‐NTD; RNase E catalytic domain; source: E. coli BL21(DE3), pET16 vector, purified (IMAC, butyl Sepharose, Superdex 200 SEC)

What was measured:
[1] = target: the molecule itself; test: cryo-EM structure; RNase E-NTD (D346C), full-length RapZ and full-length GlmZ RNA at 5:25:10 μM in 25 mM HEPES pH 7.5, 300 KCl, 1 mM MgCl2, cross-linked with 0.01% glutaraldehyde, Superose 6 SEC, graphene oxide-coated grids; binary RapZ:GlmZ and ternary classes from one dataset
[2] = target: B3; test: as above; settings: both partners purified
[3] = target: T1, RNase E-NTD (wild type, BACTH fusion) (E. coli, UniProt P21513 1-529); test: two-hybrid; adenylate cyclase-based bacterial two-hybrid (BACTH) in E. coli BTH101, pKT25 (T25-RapZ) and pUT18C-type plasmids, LB with 1 mM IPTG, β-galactosidase activity; endogenous GlmZ present in the cell; settings: partners not purified
T1 construct: RNase E, E. coli, N-terminal catalytic domain (NTD); The text calls the two-hybrid partner 'RNase E' and its variants 'RNase E‐NTD variants'; also called RNase E wild type; source: bacterial two-hybrid fusion (pUT18C-type plasmid) in E. coli BTH101

| Binder | stoichiometry N [1] | stoichiometry N [2] | fold decrease of the BACTH signal against wild-type RapZ [3] [fold] |
| --- | --- | --- | --- |
| B1 | 4 | 2 RapZ tetramers per RNase E-NTD tetramer |  |
| B2 |  |  | 2 |
| B3 | 4 |  |  |
